Laboratory results taken from the supplement of paper PMC9233669.
Variants at the floor of the assay were thinned out.

Tests used:
biotinyl-Phe-oxazolone = assay: self-aminoacylation, catalytic enhancement (BFO) (fold over background); higher = more active; k-Seq, kA / k0A0; sequences stand for … in GGGAAUGGAUCCACAUCUACGAAUUC…UUCACUGCAGACUUGACGAAGCUG
How it was run: (§1)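 Working in 50 μL HEPES/NaCl/KCl/MgCl2/CaCl2 buffer with 5% acetonitrile at pH 6.9–7.0, mutagenized RNA pools (0.43 μM; 21-nt variable region) were reacted with 2–1250 μM of each biotinyl-aminoacyl-oxazolone for 90 minutes at room temperature. Streptavidin capture followed, with quantification by triplicate qPCR and Illumina sequencing. Catalytic enhancement is reported as median kA over the uncatalyzed rate, the low-activity peak of a bimodal Gaussian fit to the data.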

biotinyl-Ile-oxazolone = assay: self-aminoacylation, catalytic enhancement (BIO) (fold over background); higher = more active; k-Seq, kA / k0A0; sequences stand for … in GGGAAUGGAUCCACAUCUACGAAUUC…UUCACUGCAGACUUGACGAAGCUG
How it was run: as §1

biotinyl-Met-oxazolone = assay: self-aminoacylation, catalytic enhancement (BMO) (fold over background); higher = more active; k-Seq, kA / k0A0; sequences stand for … in GGGAAUGGAUCCACAUCUACGAAUUC…UUCACUGCAGACUUGACGAAGCUG
How it was run: as §1

biotinyl-Val-oxazolone = assay: self-aminoacylation, catalytic enhancement (BVO) (fold over background); higher = more active; k-Seq, kA / k0A0; sequences stand for … in GGGAAUGGAUCCACAUCUACGAAUUC…UUCACUGCAGACUUGACGAAGCUG
How it was run: as §1

biotinyl-Leu-oxazolone = assay: self-aminoacylation, catalytic enhancement (BLO) (fold over background); higher = more active; k-Seq, kA / k0A0; sequences stand for … in GGGAAUGGAUCCACAUCUACGAAUUC…UUCACUGCAGACUUGACGAAGCUG
How it was run: as §1

biotinyl-Trp-oxazolone = assay: self-aminoacylation, catalytic enhancement (BWO) (fold over background); higher = more active; k-Seq, kA / k0A0; sequences stand for … in GGGAAUGGAUCCACAUCUACGAAUUC…UUCACUGCAGACUUGACGAAGCUG
How it was run: as §1

Sequence | self-aminoacylation (biotinyl-Phe-oxazolone) | self-aminoacylation (biotinyl-Ile-oxazolone) | self-aminoacylation (biotinyl-Met-oxazolone) | self-aminoacylation (biotinyl-Val-oxazolone) | self-aminoacylation (biotinyl-Leu-oxazolone) | self-aminoacylation (biotinyl-Trp-oxazolone)
AAGUCUGCUAAUAGUCUCAAG [Fam3.1 aminoacylation ribozyme variant] | 19.4 | 1.14 | 1.76 | 1.2 | 1.43 | 4.59
AAGUCUGCUAAUAUUCGCAAG [Fam3.1 aminoacylation ribozyme variant] | 2.54 | 1.11 | 1.49 | 1.06 | 1.06 | 1.77
AAGUCUGCUACUAGUCGCAAG [Fam3.1 aminoacylation ribozyme variant] | 0.846 | 0.699 | 0.856 | 0.84 | 1.15 | 0.731
AAGUCUGGUAAUAGUCGCAAG [Fam3.1 aminoacylation ribozyme variant] | 2.18 | 1.17 | 1.16 | 0.918 | 0.903 | 0.868
AAGUGGGCUAAUAGUCGCAAG [Fam3.1 aminoacylation ribozyme variant] | 2.27 | 1.6 | 1.56 | 1.32 | 1.44 | 1.73
AAGUGUGCUAAUAGUCGCAAG [Fam3.1 aminoacylation ribozyme variant] | 21.7 | 1.56 | 1.69 | 1.36 | 1.36 | 6.71
AAGUGUGCUACUAGUCGCAAG [Fam3.1 aminoacylation ribozyme variant] | 1.71 | 1.29 | 1.33 | 1.04 | 0.938 | 1.41
AAGUUACCUAAUAGUCGCAAG [Fam3.1 aminoacylation ribozyme variant] | 2.52 | 1.25 | 1.44 | 1.4 | 1.39 | 1.74
AAGUUAGCAAAUAGUCGCAAG [Fam3.1 aminoacylation ribozyme variant] | 2.37 | 1.42 | 1.44 | 1.23 | 1.32 | 1.36
AAGUUAGCUAAUAGUCGCAAA [Fam3.1 aminoacylation ribozyme variant] | 2.51 | 2.01 | 1.47 | 1.39 | 1.64 | 1.06
AAGUUAGCUCAUAGUCGCAAG [Fam3.1 aminoacylation ribozyme variant] | 3.16 | 1.85 | 1.88 | 1.61 | 2.45 | 1.81
AAGUUCCCUAAUAGUCGCAAG [Fam3.1 aminoacylation ribozyme variant] | 0.485 | 1.12 | 0.931 | 0.992 | 0.965 | 0.613
AAGUUCGCUAAAAGUCGCAAG [Fam3.1 aminoacylation ribozyme variant] | 4.4 | 2.42 | 2.51 | 1.67 | 2.68 | 3.39
AAGUUCGCUAAUAGGCGCAAG [Fam3.1 aminoacylation ribozyme variant] | 1.58 | 1.23 | 0.965 | 1.16 | 1.03 | 1.2
AAGUUCGCUAAUAGUAGCAAG [Fam3.1 aminoacylation ribozyme variant] | 3.5 | 1.67 | 1.55 | 1.26 | 1.28 | 1.24
AAGUUCGCUAAUAGUCGCAAG [Fam3.1 aminoacylation ribozyme variant] | 6.36 | 2.04 | 1.91 | 1.81 | 1.94 | 2.94
AAGUUCGCUAAUAGUCGCAGG [Fam3.1 aminoacylation ribozyme variant] | 2.51 | 2.54 | 2.87 | 1.89 | 3.87 | 2.2
AAGUUCGCUAAUAGUCGGAAG [Fam3.1 aminoacylation ribozyme variant] | 2.48 | 1.2 | 0.621 | 0.743 | 1.17 | 1.07
AAGUUCGCUACUAGUCGCAAG [Fam3.1 aminoacylation ribozyme variant] | 2.28 | 2.08 | 1.67 | 1.79 | 1.5 | 1.34
AAGUUCGCUUAUAGUCGCAAG [Fam3.1 aminoacylation ribozyme variant] | 1.99 | 1.86 | 2.03 | 1.5 | 1.84 | 2.23
AAGUUCGUUAAUAGUCGCAAG [Fam3.1 aminoacylation ribozyme variant] | 3.09 | 1.93 | 1.77 | 1.53 | 1.94 | 1.56
AAGUUGACUAAUAGUCGCAAG [Fam3.1 aminoacylation ribozyme variant] | 1.5 | 1.18 | 0.839 | 0.949 | 0.935 | 1.19
AAGUUGGCUAAGAGUCGCAAG [Fam3.1 aminoacylation ribozyme variant] | 1.91 | 2.02 | 1.68 | 1.53 | 1.98 | 2.13
AAGUUGGCUAAUACUCGCAAG [Fam3.1 aminoacylation ribozyme variant] | 1.44 | 1.39 | 1.2 | 1.39 | 0.979 | 1.45
AAGUUGGCUAAUAGUGGCAAG [Fam3.1 aminoacylation ribozyme variant] | 0.667 | 0.654 | 0.931 | 0.731 | 0.655 | 1.13
AAGUUGGCUAAUCGUCGCAAG [Fam3.1 aminoacylation ribozyme variant] | 2.73 | 1.76 | 1.68 | 1.51 | 1.75 | 2.24

Sequence | self-aminoacylation (biotinyl-Phe-oxazolone) | self-aminoacylation (biotinyl-Ile-oxazolone) | self-aminoacylation (biotinyl-Met-oxazolone) | self-aminoacylation (biotinyl-Val-oxazolone) | self-aminoacylation (biotinyl-Leu-oxazolone) | self-aminoacylation (biotinyl-Trp-oxazolone)
AAGUUGGCUGAUAGUCGCAAG [Fam3.1 aminoacylation ribozyme variant] | 2.34 | 1.8 | 1.49 | 1.7 | 1.55 | 1.86
AAGUUGGCUUAUAGUCGCAAG [Fam3.1 aminoacylation ribozyme variant] | 2.35 | 1.59 | 1.94 | 1.61 | 1.64 | 1.7
AAGUUGGUUAAUAGUCGCAAG [Fam3.1 aminoacylation ribozyme variant] | 1.87 | 1.4 | 1.42 | 1.24 | 1.46 | 1.81
AAGUUUACUAACAGUCGCAAG [Fam3.1 aminoacylation ribozyme variant] | 2.91 | 1.58 | 1.48 | 1.63 | 1.95 | 1.38
AAGUUUACUAAUAGACGCAAG [Fam3.1 aminoacylation ribozyme variant] | 1.15 | 0.695 | 0.816 | 1.03 | 0.638 | 0.834
AAGUUUACUAUUAGUCGCAAG [Fam3.1 aminoacylation ribozyme variant] | 2.72 | 1.83 | 1.59 | 1.76 | 1.49 | 2.02
AAGUUUCCUAAGAGUCGCAAG [Fam3.1 aminoacylation ribozyme variant] | 1.17 | 1.29 | 1.04 | 1.31 | 1.24 | 0.936
AAGUUUCCUAAUAGACGCAAG [Fam3.1 aminoacylation ribozyme variant] | 1.32 | 0.82 | 0.632 | 0.805 | 0.671 | 0.895
AAGUUUCCUAAUAGUCGCAAC [Fam3.1 aminoacylation ribozyme variant] | 2.42 | 1.59 | 1.73 | 1.31 | 1.5 | 2.18
AAGUUUCCUAAUAGUCGCUAG [Fam3.1 aminoacylation ribozyme variant] | 2.18 | 1.61 | 1.78 | 1.67 | 1.39 | 1.97
AAGUUUCCUAAUAGUCGUAAG [Fam3.1 aminoacylation ribozyme variant] | 2.58 | 1.2 | 1.18 | 1.07 | 1.07 | 1.27
AAGUUUCGUAAUAGUCGCAAG [Fam3.1 aminoacylation ribozyme variant] | 2.26 | 1.63 | 1.27 | 1.33 | 1.78 | 1.61
AAGUUUGAUAACAGUCGCAAG [Fam3.1 aminoacylation ribozyme variant] | 0.983 | 0.929 | 0.877 | 0.798 | 0.548 | 0.569
AAGUUUGAUAAUAGCCGCAAG [Fam3.1 aminoacylation ribozyme variant] | 1.32 | 1.29 | 1.37 | 1.14 | 1.05 | 1.19
AAGUUUGAUAAUAGUAGCAAG [Fam3.1 aminoacylation ribozyme variant] | 0.835 | 0.724 | 0.756 | 0.691 | 0.535 | 0.667
AAGUUUGAUAAUGGUCGCAAG [Fam3.1 aminoacylation ribozyme variant] | 1.47 | 0.891 | 0.785 | 0.644 | 0.895 | 0.581
AAGUUUGAUAUUAGUCGCAAG [Fam3.1 aminoacylation ribozyme variant] | 1.72 | 1.45 | 1.24 | 1.4 | 1.54 | 1.31
AAGUUUGCAAAAAGUCGCAAG [Fam3.1 aminoacylation ribozyme variant] | 1.72 | 0.902 | 1.07 | 0.733 | 0.938 | 0.831
AAGUUUGCAAAUACUCGCAAG [Fam3.1 aminoacylation ribozyme variant] | 2.14 | 0.898 | 0.701 | 0.798 | 0.897 | 0.774
AAGUUUGCAAAUCGUCGCAAG [Fam3.1 aminoacylation ribozyme variant] | 0.933 | 1.09 | 0.985 | 0.93 | 1.18 | 1.21
AAGUUUGCAAGUAGUCGCAAG [Fam3.1 aminoacylation ribozyme variant] | 1.14 | 0.95 | 1.06 | 0.914 | 0.731 | 1.06
AAGUUUGCAUAUAGUCGCAAG [Fam3.1 aminoacylation ribozyme variant] | 0.843 | 0.762 | 0.636 | 0.961 | 0.744 | 0.826
AAGUUUGCCAAUAGUCACAAG [Fam3.1 aminoacylation ribozyme variant] | 1.1 | 1.55 | 1.56 | 1.23 | 1.07 | 1.04
AAGUUUGCCAAUAGUCCCAAG [Fam3.1 aminoacylation ribozyme variant] | 0.931 | 1.21 | 1.1 | 1.04 | 0.831 | 1.27
AAGUUUGCGAAAAGUCGCAAG [Fam3.1 aminoacylation ribozyme variant] | 2.82 | 1.46 | 1.8 | 1.43 | 1.8 | 1.3
